Experimental data: the supplement of paper PMC10201428
± gives the standard deviation of the averaged measurements.

Tests used:
[1] = test system: VchCAST RNA-guided transposition machinery (E. coli BL21(DE3) host, lacZ target); assay: relative integration efficiency (T-RL orientation) vs wild-type transposon end (log2 (normalized fold change)); transposon end mutated: right end (5 bp flank + 75 bp right end); higher = more efficient transposition
In short: (§1)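 Relative integration efficiency is a fold change of output over input barcode abundance, normalised to reference barcodes and log-transformed. Input plasmids and genomic integration junctions were PCR-amplified and Illumina-sequenced from E. coli BL21(DE3) co-transformed with a T7-driven effector plasmid and pUC57 donor pools of 1549 left-end or 1849 right-end transposon variants. Plating was done with 0.1 mM IPTG at 37°C for 18 h, with two biological output replicates and four reference barcodes.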

[2] = test system: VchCAST RNA-guided transposition machinery (E. coli BL21(DE3) host, lacZ target); assay: relative integration efficiency (T-LR orientation) vs wild-type transposon end (log2 (normalized fold change)); transposon end mutated: right end (5 bp flank + 75 bp right end); higher = more efficient transposition
In short: as §1

Sequence	relative integration efficiency (log2) [1]	relative integration efficiency (log2) [2]
ACATTTGTTGATACAACCATAAAATGATAATTACTCTGATCACCCATAAATTGATAATTATCACACCCATAAATTGATATTGCCATAGTCAGACCAACATTGCTACGACCCGTATTCGCACCGACAC	-4.39 ± 0.071	0.359 ± 0.11
ACATTTGTTGATACAACCATAAAATGATAATTACTCTGATCACCCATAAATTGATAATTATCAGTGGGTATTTAACTATAACGCATAGTCAGACCAACATTGCTACGACCCGTATTCGCACCGACAC	-2.48 ± 0.42	0.977 ± 0.086
ACATTTGTTGATACAACCATAAAATGATAATTACTCTGATCATAGTCACACCCATAAATTGATAATTATCACACCCATAAATTGATATTGCGACCAACATTGCTACGACCCGTATTCGCACCGACAC	-4.9525 ± 0.00028	-1.68 ± 0.39
ACATTTGTTGATACAACCATAAAATGATAATTACTCTGATCATAGTCACACCCATAAATTGATAATTATCAGTGGGTATTTAACTATAACGGACCAACATTGCTACGACCCGTATTCGCACCGACAC	-3.34 ± 0.27	-0.9229 ± 0.0035
ACATTTGTTGATACAACCATAAAATGATAATTACTCTGATCATAGTCAGACACCCATAAATTGATAATTATCACACCCATAAATTGATATTGCCCAACATTGCTACGACCCGTATTCGCACCGACAC	-3.73 ± 0.17	-0.838 ± 0.091
ACATTTGTTGATACAACCATAAAATGATAATTACTCTGATCATAGTCAGACACCCATAAATTGATAATTATCAGTGGGTATTTAACTATAACGCCAACATTGCTACGACCCGTATTCGCACCGACAC	-1.71 ± 0.23	1.66 ± 0.32
ACATTTGTTGATACAACCATAAAATGATAATTACTCTGATCATAGTCAGACCAACATTCACCCATAAATTGATAATTATCACACCCATAAATTGATATTGCGCTACGACCCGTATTCGCACCGACAC	-4.53 ± 0.13	-2.04 ± 0.32
ACATTTGTTGATACAACCATAAAATGATAATTACTCTGATCATAGTCAGACCAACATTCACCCATAAATTGATAATTATCAGTGGGTATTTAACTATAACGGCTACGACCCGTATTCGCACCGACAC	-3.1 ± 0.26	-0.137 ± 0.076
ACATTTGTTGATACAACCATAAAATGATAATTACTCTGATCATAGTCAGACCAACATTGCTACCACCCATAAATTGATAATTATCACACCCATAAATTGATATTGCGACCCGTATTCGCACCGACAC	-3.63 ± 0.078	-0.553 ± 0.016
ACATTTGTTGATACAACCATAAAATGATAATTACTCTGATCATAGTCAGACCAACATTGCTACCACCCATAAATTGATAATTATCAGTGGGTATTTAACTATAACGGACCCGTATTCGCACCGACAC	-1.54 ± 0.53	1.601 ± 0.014
ACATTTGTTGATACAACCATAAAATGATAATTACTCTGATCATAGTCAGACCAACATTGCTACGACCCCACCCATAAATTGATAATTATCACACCCATAAATTGATATTGCGTATTCGCACCGACAC	-3.23 ± 0.04	-0.249 ± 0.18
ACATTTGTTGATACAACCATAAAATGATAATTACTCTGATCATAGTCAGACCAACATTGCTACGACCCCACCCATAAATTGATAATTATCAGTGGGTATTTAACTATAACGGTATTCGCACCGACAC	-2.938 ± 0.018	-0.154 ± 0.0093
ACATTTGTTGATACAACCATAAAATGATAATTACTCTGATCATAGTCAGACCAACATTGCTACGACCCGTATTCACCCATAAATTGATAATTATCACACCCATAAATTGATATTGCCGCACCGACAC	-3.12 ± 0.47	0.261 ± 0.085
ACATTTGTTGATACAACCATAAAATGATAATTACTCTGATCATAGTCAGACCAACATTGCTACGACCCGTATTCACCCATAAATTGATAATTATCAGTGGGTATTTAACTATAACGCGCACCGACAC	-2.15 ± 0.4	1.08 ± 0.33
ACATTTGTTGATACAACCATAAAATGATAATTACTCTGATCATAGTCAGACCAACATTGCTACGACCCGTATTCGCACCACCCATAAATTGATAATTATCACACCCATAAATTGATATTGCCGACAC	-2.767 ± 0.019	-0.66 ± 0.24
ACATTTGTTGATACAACCATAAAATGATAATTACTCTGATCATAGTCAGACCAACATTGCTACGACCCGTATTCGCACCACCCATAAATTGATAATTATCAGTGGGTATTTAACTATAACGCGACAC	-2.38 ± 0.56	1.01 ± 0.035
ACATTTGTTGATACAACCATAAAATGATAATTACTCTGATCATAGTCAGACCAACATTGCTACGACCCGTATTCGCACCGACACAACGACTATATTTACACCCATAAATTGATAATTATCAGTGGGT	-1.358 ± 0.0083	1.81 ± 0.28
ACATTTGTTGATACAACCATAAAATGATAATTACTCTGATCATAGTCAGACCAACATTGCTACGACCCGTATTCGCACCGACACAACGACTATATTTATGGGTCACCCATAAATTGATAATTATCAG	-1.52 ± 0.14	1.36 ± 0.37

Sequence	relative integration efficiency (log2) [1]	relative integration efficiency (log2) [2]
ACATTTGTTGATACAACCATAAAATGATAATTACTCTGATCATAGTCAGACCAACATTGCTACGACCCGTATTCGCACCGACACAACGACTATCACCCATAAATTGATAATTATCAGTGGGTATTTA	-1.16 ± 0.15	2.166 ± 0.019
ACATTTGTTGATACAACCATAAAATGATAATTACTCTGATCATAGTCAGACCAACATTGCTACGACCCGTATTCGCACCGACACAACGCACCCATAAATTGATAATTATCAGTGGGTATTTAACTAT	-1.4 ± 0.054	1.8 ± 0.1
ACATTTGTTGATACAACCATAAAATGATAATTACTCTGATCATAGTCAGACCAACATTGCTACGACCCGTATTCGCACCGACACACCCATAAATTGATAATTATCACACCCATAAATTGATATTGCC	-2.59 ± 0.21	0.795 ± 0.3
ACATTTGTTGATACAACCATAAAATGATAATTACTCTGATCATAGTCAGACCAACATTGCTACGACCCGTATTCGCACCGACACACCCATAAATTGATAATTATCAGTGGGTATTTAACTATAACGC	-1.05 ± 0.17	2.24 ± 0.21
ACATTTGTTGATACAACCATAAAATGATAATTACTCTGATCATAGTCAGACCACACCCATAAATTGATAATTATCACACCCATAAATTGATATTGCACATTGCTACGACCCGTATTCGCACCGACAC	-4.6 ± 0.057	-2.36 ± 0.32
ACATTTGTTGATACAACCATAAAATGATAATTACTCTGATCATAGTCAGACCACACCCATAAATTGATAATTATCAGTGGGTATTTAACTATAACGACATTGCTACGACCCGTATTCGCACCGACAC	-0.22 ± 0.33	2.27 ± 0.15
ACATTTGTTGATACAACCATAAAATGATAATTACTCTGATCATAGTCAGCACCCATAAATTGATAATTATCACACCCATAAATTGATATTGCACCAACATTGCTACGACCCGTATTCGCACCGACAC	-4.51 ± 0.36	-0.456 ± 0.19
ACATTTGTTGATACAACCATAAAATGATAATTACTCTGATCATAGTCAGCACCCATAAATTGATAATTATCAGTGGGTATTTAACTATAACGACCAACATTGCTACGACCCGTATTCGCACCGACAC	-2.61 ± 0.47	0.537 ± 0.24
ACATTTGTTGATACAACCATAAAATGATAATTACTCTGATCATCACCCATAAATTGATAATTATCACACCCATAAATTGATATTGCAGTCAGACCAACATTGCTACGACCCGTATTCGCACCGACAC	-4.28 ± 0.15	-2.15 ± 0.28
ACATTTGTTGATACAACCATAAAATGATAATTACTCTGATCATCACCCATAAATTGATAATTATCAGTGGGTATTTAACTATAACGAGTCAGACCAACATTGCTACGACCCGTATTCGCACCGACAC	-3.53 ± 0.084	-0.42 ± 0.11
ACATTTGTTGATACAACCATAAAATGATAATTACTCTGCACCCATAAATTGATAATTATCACACCCATAAATTGATATTGCATCATAGTCAGACCAACATTGCTACGACCCGTATTCGCACCGACAC	-3.62 ± 0.15	0.55 ± 0.061
ACATTTGTTGATACAACCATAAAATGATAATTACTCTGCACCCATAAATTGATAATTATCAGTGGGTATTTAACTATAACGATCATAGTCAGACCAACATTGCTACGACCCGTATTCGCACCGACAC	-2.05 ± 0.21	0.872 ± 0.43
ACATTTGTTGATACAACCATAAAATGATAATTACTGCCATAAATTGATAATTATCACACCCATAAATTGATATTGCCTCTGATCATAGTCAGACCAACATTGCTACGACCCGTATTCGCACCGACAC	-0.109 ± 0.19	-0.602 ± 0.32
ACATTTGTTGATACAACCATAAAATGATAATTACTGGGATAAATTGATAATTATCACACCCATAAATTGATATTGCCTCTGATCATAGTCAGACCAACATTGCTACGACCCGTATTCGCACCGACAC	-0.454 ± 0.059	-0.993 ± 0.59
ACATTTGTTGATACAACCATAAAATGATAATTAGAAACCATAATTGATAATTATCACACCCATAAATTGATATTGCCTCTGATCATAGTCAGACCAACATTGCTACGACCCGTATTCGCACCGACAC	-3.59 ± 0.08	-2.38 ± 0.52
ACATTTGTTGATACAACCATAAAATGATAATTAGAAACCATACGCTGAAATAATCACACCCATAAATTGATATTGCCTCTGATCATAGTCAGACCAACATTGCTACGACCCGTATTCGCACCGACAC	-3.5 ± 0.081	-1.54 ± 0.65
ACATTTGTTGATACAACCATAAAATGATAATTAGACCCCATAATTGATAATTATCACACCCATAAATTGATATTGCCTCTGATCATAGTCAGACCAACATTGCTACGACCCGTATTCGCACCGACAC	-3.4826 ± 0.0031	-3.27 ± 0.54
